In paper PMC5095587 one finds stoichiometry N data, which are given here for one substance.

The target of this assay is ferredoxin isoform 2 from Arabidopsis thaliana (Arabidopsis thaliana) (UniProt P16972). Put plainly: NMR titration; 15N HSQC of labelled ferredoxin with purified FusA added at varying stoichiometry up to 1:1; buffer with 0.1% LDAO, sodium phosphate; 600 MHz.

As a reminder, the stoichiometry N is the number of molecules, sites or subunits per partner or assembly. “FusA_(1043) Δ20 (FusA from P. atrosepticum SCRI1043 lacking the 20 amino-acid N-terminal signal sequence) (from UniProt Q6CZW5 21-704) (receptor)”: the stoichiometry N stood at 1.
